For data set [1], the target named is Grb2 SH2 (UniProt P62993). The data set can be described thus: SH2 binding enrichment of the phosphorylated peptide, bacterial display (enrichment ratio); higher = better substrate or ligand; peptides without Tyr show the background.
For data set [2], the target named is c-Src SH2. The description is as above.
The target of data set [3] is SHP2-C SH2. The description is as above.
Data set [4] addresses FGFR3 (UniProt P22607). The data set can be described thus: phosphorylation enrichment, bacterial display (enrichment ratio); higher = better substrate or ligand; peptides without Tyr show the background.
The target of data set [5] is Fyn (UniProt P06241). The description is as above.
Data set [6] concerns the target MERTK (UniProt Q12866). The data set is described as above.
For data set [7], the target named is Jak2 (UniProt O60674). Described as above.
Jak2, sequence (O60674 whole entry, looked up): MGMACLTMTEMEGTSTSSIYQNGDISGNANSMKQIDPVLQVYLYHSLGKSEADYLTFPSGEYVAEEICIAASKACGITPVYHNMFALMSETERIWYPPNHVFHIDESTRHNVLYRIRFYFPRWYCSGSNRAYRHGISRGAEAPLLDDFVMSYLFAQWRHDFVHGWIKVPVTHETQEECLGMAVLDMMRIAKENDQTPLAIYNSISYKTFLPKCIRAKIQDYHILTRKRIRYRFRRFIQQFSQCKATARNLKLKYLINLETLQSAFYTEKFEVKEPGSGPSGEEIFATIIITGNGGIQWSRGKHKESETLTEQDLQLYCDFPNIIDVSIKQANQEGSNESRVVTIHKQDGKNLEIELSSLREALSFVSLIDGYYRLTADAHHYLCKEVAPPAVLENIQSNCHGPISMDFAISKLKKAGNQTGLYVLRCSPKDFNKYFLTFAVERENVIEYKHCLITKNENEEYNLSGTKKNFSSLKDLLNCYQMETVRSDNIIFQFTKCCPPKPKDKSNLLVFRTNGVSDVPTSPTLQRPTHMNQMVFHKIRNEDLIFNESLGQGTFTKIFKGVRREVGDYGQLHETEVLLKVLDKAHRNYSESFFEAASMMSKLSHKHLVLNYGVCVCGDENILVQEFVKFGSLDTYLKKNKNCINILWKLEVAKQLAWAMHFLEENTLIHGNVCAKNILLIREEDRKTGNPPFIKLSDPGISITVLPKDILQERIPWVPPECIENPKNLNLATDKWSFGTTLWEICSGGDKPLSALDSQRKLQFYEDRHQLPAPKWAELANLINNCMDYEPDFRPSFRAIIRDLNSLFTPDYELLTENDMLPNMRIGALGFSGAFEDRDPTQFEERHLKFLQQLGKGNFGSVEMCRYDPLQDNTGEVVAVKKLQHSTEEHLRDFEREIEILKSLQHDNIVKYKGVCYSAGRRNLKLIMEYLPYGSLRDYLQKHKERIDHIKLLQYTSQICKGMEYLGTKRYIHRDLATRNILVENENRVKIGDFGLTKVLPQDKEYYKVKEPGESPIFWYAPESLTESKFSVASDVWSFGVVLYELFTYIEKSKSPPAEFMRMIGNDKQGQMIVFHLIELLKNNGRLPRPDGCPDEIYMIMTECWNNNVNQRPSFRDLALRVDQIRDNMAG
Data set [8] concerns AncSZ. The description is as above.
Data set [9] deals with EPHB1 (UniProt P54762). The description is as above.
EPHB1, sequence (P54762 whole entry, looked up): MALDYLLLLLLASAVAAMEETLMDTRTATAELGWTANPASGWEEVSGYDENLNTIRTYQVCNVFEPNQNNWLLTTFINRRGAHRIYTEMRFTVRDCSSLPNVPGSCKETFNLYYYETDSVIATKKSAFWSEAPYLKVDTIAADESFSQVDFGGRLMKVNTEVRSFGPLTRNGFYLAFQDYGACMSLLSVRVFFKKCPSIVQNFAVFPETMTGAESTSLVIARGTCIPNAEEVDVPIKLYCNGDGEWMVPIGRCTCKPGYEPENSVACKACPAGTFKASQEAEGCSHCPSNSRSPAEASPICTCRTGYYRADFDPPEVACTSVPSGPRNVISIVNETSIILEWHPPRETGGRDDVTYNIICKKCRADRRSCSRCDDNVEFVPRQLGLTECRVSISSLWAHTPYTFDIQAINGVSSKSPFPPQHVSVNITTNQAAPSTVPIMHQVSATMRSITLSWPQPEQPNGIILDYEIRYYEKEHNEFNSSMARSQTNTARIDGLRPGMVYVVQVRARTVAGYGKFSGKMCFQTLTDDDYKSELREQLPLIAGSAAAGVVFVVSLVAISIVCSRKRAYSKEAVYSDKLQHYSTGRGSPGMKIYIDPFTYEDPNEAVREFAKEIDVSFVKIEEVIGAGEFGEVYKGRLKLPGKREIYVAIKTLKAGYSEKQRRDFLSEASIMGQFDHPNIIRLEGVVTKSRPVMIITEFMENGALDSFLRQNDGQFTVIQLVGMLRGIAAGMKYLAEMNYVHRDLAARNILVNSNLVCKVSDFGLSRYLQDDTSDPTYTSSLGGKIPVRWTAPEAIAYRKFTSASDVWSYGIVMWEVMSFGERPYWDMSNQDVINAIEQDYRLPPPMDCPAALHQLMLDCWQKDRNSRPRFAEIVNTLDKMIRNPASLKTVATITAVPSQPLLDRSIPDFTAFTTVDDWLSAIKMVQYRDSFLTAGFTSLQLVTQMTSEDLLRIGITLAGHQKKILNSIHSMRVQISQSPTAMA
In data set [10] the test system is Fer (mouse). Described as above.
Data set [11] concerns the target Hck (UniProt P08631). The data set is described as above.
In data set [12] the target is EPHB2 (UniProt P29323). The data set is described as above.
The target in data set [13] is Fes (UniProt P07332). The data set is described as above.
Data set [14] deals with c-Abl (mouse). Described as above.
Data set [15] relates to c-Src. The data set is described as above.
The target in data set [16] is FGFR1 (UniProt P11362). Described as above.
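For SH2 binding enrichment of the phosphorylated peptide, bacterial display in this document: peptide library displayed on the E. coli surface as eCPX fusions, selected cells deep-sequenced, score is each peptide's frequency after selection divided by its frequency in the input.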
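For phosphorylation enrichment, bacterial display in this document: 11-residue human phosphosite peptides and single-mutation variants displayed on the E. coli surface, counted by deep sequencing, each peptide's frequency after selection divided by its frequency in the unselected input library; frequency after pTyr selection over input frequency; kinase dosed for 20-30% of maximal phosphorylation in three min.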

MERTK, sequence (Q12866 whole entry, looked up): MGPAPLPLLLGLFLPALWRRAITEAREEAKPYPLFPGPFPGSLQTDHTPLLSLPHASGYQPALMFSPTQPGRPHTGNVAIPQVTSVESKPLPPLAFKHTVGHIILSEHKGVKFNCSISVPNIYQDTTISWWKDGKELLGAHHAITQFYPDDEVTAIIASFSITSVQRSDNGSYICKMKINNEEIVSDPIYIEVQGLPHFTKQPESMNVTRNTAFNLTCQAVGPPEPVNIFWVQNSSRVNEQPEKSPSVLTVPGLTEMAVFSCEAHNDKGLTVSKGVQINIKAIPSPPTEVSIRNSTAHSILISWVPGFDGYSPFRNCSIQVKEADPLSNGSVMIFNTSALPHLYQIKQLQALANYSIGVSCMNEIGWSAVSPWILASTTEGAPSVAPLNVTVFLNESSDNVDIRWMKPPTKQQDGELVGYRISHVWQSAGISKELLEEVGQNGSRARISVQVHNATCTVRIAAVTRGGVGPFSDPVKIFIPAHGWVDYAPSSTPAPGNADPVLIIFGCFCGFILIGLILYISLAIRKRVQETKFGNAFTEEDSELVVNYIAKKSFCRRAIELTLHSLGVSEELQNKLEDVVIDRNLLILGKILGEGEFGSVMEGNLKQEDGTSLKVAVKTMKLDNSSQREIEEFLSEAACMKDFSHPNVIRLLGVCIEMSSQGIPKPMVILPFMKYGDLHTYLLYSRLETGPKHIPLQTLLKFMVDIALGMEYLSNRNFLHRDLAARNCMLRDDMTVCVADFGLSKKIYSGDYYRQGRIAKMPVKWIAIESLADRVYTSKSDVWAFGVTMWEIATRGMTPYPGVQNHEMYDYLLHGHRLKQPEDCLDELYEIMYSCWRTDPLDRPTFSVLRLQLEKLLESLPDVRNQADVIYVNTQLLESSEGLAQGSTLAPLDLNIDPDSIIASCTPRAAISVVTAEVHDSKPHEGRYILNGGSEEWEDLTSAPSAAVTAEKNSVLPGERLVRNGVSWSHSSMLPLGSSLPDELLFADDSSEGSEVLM
FGFR3, sequence (P22607 whole entry, looked up): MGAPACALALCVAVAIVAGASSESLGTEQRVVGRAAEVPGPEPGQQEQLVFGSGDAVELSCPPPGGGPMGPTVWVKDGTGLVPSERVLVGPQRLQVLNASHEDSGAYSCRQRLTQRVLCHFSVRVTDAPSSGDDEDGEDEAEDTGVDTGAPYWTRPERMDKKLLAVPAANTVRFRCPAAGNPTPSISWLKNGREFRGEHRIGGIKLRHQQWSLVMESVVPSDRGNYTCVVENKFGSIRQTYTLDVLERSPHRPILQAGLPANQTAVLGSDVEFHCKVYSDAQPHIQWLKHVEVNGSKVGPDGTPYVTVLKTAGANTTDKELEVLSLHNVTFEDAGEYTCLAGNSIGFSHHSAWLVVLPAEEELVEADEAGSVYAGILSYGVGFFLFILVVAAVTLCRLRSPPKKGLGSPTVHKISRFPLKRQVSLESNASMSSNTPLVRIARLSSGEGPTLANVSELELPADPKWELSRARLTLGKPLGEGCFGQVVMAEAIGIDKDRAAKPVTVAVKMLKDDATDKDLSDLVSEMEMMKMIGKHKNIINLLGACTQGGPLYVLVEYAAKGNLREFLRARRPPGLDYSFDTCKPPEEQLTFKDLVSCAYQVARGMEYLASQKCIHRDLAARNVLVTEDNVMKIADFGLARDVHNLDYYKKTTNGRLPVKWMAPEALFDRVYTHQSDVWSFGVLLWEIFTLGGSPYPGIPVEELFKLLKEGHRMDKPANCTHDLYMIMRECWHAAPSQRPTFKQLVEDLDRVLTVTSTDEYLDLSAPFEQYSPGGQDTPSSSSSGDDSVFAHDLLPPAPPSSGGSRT
Hck, sequence (P08631 whole entry, looked up): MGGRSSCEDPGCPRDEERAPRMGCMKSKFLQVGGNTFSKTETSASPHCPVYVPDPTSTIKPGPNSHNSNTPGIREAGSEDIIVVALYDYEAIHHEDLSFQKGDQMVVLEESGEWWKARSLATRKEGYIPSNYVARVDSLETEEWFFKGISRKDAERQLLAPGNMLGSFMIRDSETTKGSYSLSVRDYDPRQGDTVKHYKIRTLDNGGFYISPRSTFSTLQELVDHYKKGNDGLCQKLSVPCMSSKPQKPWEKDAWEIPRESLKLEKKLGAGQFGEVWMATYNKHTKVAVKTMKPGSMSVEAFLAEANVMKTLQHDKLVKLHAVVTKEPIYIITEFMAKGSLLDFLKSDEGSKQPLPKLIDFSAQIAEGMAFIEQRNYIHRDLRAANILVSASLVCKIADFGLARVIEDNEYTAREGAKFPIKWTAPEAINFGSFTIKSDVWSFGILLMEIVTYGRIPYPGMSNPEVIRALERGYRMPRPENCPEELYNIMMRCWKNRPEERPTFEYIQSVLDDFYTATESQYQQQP
Grb2 SH2, sequence (P62993 whole entry, looked up): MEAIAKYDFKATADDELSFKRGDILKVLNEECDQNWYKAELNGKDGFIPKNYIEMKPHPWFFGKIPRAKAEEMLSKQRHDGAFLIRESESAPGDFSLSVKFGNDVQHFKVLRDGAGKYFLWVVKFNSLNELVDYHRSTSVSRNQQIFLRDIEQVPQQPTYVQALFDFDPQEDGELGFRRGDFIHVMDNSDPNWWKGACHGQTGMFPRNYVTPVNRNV

Consider LVMFIYAIFGM [SCN1A_Y1684], for which the SH2 binding enrichment in data set [1] is 2.09; in [2] it was 1.2; in [3], 1.8. Also, the phosphorylation enrichment in data set [4] was found to be 1.41; in data set [5] it was 1.21; in [6], 1.13; in [7], 1.94; in [8], 1.49; in data set [9], 1.03. Moreover, the phosphorylation enrichment in data set [10] worked out at 1.19; in data set [11], 0.777; in [12], 1.03; in data set [13], 1.88; in data set [14], 1.55; in data set [15], 1.99. The phosphorylation enrichment in data set [16] is 0.952.
With LVMFIYDIFGM [SCN1A_Y1684_A1685D], the results for the SH2 binding enrichment in [1], in [2] and in [3] were 1.74, 1.67 and 2.28, respectively. Besides, the phosphorylation enrichment was 1.9 in data set [4]; 8.72 in data set [5]; 5.95 in data set [6]; 1.72 in data set [7]; 5.48 in data set [8]; 2.11 in data set [9]. The phosphorylation enrichment was 3.13 in [10]; 5.56 in data set [11]; 2.92 in [12]; 3.08 in data set [13]; 1.55 in data set [14]; 6.25 in [15]. Also, in data set [16], the phosphorylation enrichment was 1.66.
LVPPRYVRSEI [PKP2_Y194_A195V]: the SH2 binding enrichment in [1] was 0.788; in [2], 0.506; in data set [3] it was 0.632. Further, the phosphorylation enrichment in data set [4] came out at 0.605; in data set [5], 0.431; in data set [6], 0.588; in [7], 0.685; in data set [8], 0.612; in [9] it was 0.538. The phosphorylation enrichment worked out at 0.522 in data set [10]; 0.321 in data set [11]; 0.645 in data set [12]; 0.94 in data set [13]; 0.58 in [14]; 0.555 in data set [15]. Besides, the phosphorylation enrichment in data set [16] is 0.469.
Take LVRPPYSYLAL [FOXI1_Y126_S129L]: the SH2 binding enrichment in data set [1] came to 1.06; in data set [2], 3.64; in [3] it was 3.61. The phosphorylation enrichment turned out to be 1.33 in data set [4]; 0.438 in [5]; 2.78 in data set [6]; 2.16 in data set [7]; 0.602 in data set [8]; 0.63 in data set [9]. For the same sequence, the phosphorylation enrichment amounted to 1.23 in [10]; 0.678 in data set [11]; 0.536 in data set [12]; 0.645 in data set [13]; 0.757 in data set [14]; 0.498 in data set [15]. In addition, in data set [16], the phosphorylation enrichment was 1.62.
As to LVSCTYQLATG [FGFR2_Y608_R612T], the figures for the SH2 binding enrichment in [1], in data set [2] and in data set [3] were 0.729, 0.456 and 0.739, respectively. Further, the phosphorylation enrichment came to 0.764 in data set [4]; 0.596 in [5]; 0.546 in data set [6]; 1.05 in data set [7]; 1.41 in data set [8]; 0.717 in [9]. Moreover, the phosphorylation enrichment amounted to 0.615 in data set [10]; 0.631 in data set [11]; 0.668 in [12]; 1.3 in data set [13]; 0.83 in [14]; 0.952 in [15]. For the same sequence, in data set [16], the phosphorylation enrichment came out at 0.559.
As to LWKWKYEELKE [CCDC102B_Y299], the figures for the SH2 binding enrichment in data set [1], in [2] and in data set [3] were 1.43, 0.81 and 0.808, respectively. Moreover, the phosphorylation enrichment in [4] was 1.24; in [5] it was 0.631; in data set [6] it was 0.336; in [7], 1.09; in data set [8], 1.28; in [9] it was 0.92. The phosphorylation enrichment in data set [10] came out at 0.712; in [11], 0.513; in data set [12], 0.493; in data set [13] it was 1.73; in data set [14], 0.725; in data set [15], 0.27. In data set [16], the phosphorylation enrichment came to 0.573.
As for LYDPDFMKVIL [CYP4A22_Y104_Y104F], the SH2 binding enrichment in data set [1] amounted to 0.785; in data set [2], 0.467; in data set [3] it was 0.634. Besides, the phosphorylation enrichment was determined as 0.688 in data set [4]; 0.888 in [5]; 2.57 in [6]; 1.39 in [7]; 1.18 in [8]; 0.772 in [9]. Also, the phosphorylation enrichment amounted to 1.09 in [10]; 0.634 in data set [11]; 1.01 in [12]; 1.78 in data set [13]; 1.8 in data set [14]; 0.954 in data set [15]. Moreover, in data set [16], the phosphorylation enrichment came to 0.562.
With MARDIYRASYY [ALK_Y1278], the SH2 binding enrichment in [1] was determined as 0.877; in data set [2], 0.839; in [3], 0.708. Further, the phosphorylation enrichment in data set [4] stood at 0.63; in [5], 0.688; in [6] it was 0.673; in data set [7], 0.702; in [8], 0.685; in data set [9], 0.466. Further, the phosphorylation enrichment came out at 0.408 in data set [10]; 1.01 in [11]; 0.439 in data set [12]; 0.683 in data set [13]; 1.77 in data set [14]; 1.58 in data set [15]. Besides, in data set [16], the phosphorylation enrichment was 0.624.
